One test deals with HDAC3. Description: GST pull-down of GST-HDAC3 and Flag-sLZIP in 293T cells. In kind it is binding. The protocol:
293T cells were obtained and washed with cold PBS. The cells were re-suspended in an IP lysis buffer [25 mM of Tris-HCl (pH 7.4), 150 mM of NaCl, 1 mM of EDTA, 1% NP-40 and 5% glycerol, and a protease inhibitor]. A suspension was centrifuged at 16,000×g for 20 minutes at 4° C. Supernatants were collected and incubated with 0.5 μg of appropriate antibodies and 25 μl of protein A/G-agarose or a GST Sepharose 4B bead for 24 hours at 4° C. A protein complex was centrifuged at 1,000×g with a cold IP lysis buffer for 1 minute and washed five times. The final pellet was re-suspended in 50 μl of an SDS-sample buffer containing 5% β-mercaptoethanol and heated for 10 minutes at 100° C. […] Co-precipitated proteins were detected according to western blotting using specific antibodies.
For this purpose, 293T cells were transiently transfected with PPARγ2 (0.5 μg), (3-galactosidase (0.1 μg), FABP4-Luc reporter genes (0.2 μg) and sLZIP (0.1 μg). After the transfection, the cells were stimulated with or without 10 nM of RZD and 10 nM of TSA (FIG. 4A). A promoter activity was measured according to luciferase analysis. In the 293T cells, FABP4-Luc reporter genes, sLZIP, PPAR, β-galactosidase, and 100 nM of si-RNAs and HDAC1, 2, 3 and 8 for a control group were expressed. After the transfection, the cells were stimulated with or without 10 nM of RZD, and a promoter activity was measured (FIG. 4B). […]

Another test deals with NCoR1. As to the kind of experiment: Immunoprecipitation with anti-NCoR1 antibodies in 293T cells expressing Flag-sLZIP. The settings on record: 10 nM RZD for 24 hours. The class given is binding. The protocol:
293T cells were obtained and washed with cold PBS. The cells were re-suspended in an IP lysis buffer [25 mM of Tris-HCl (pH 7.4), 150 mM of NaCl, 1 mM of EDTA, 1% NP-40 and 5% glycerol, and a protease inhibitor]. A suspension was centrifuged at 16,000×g for 20 minutes at 4° C. Supernatants were collected and incubated with 0.5 μg of appropriate antibodies and 25 μl of protein A/G-agarose or a GST Sepharose 4B bead for 24 hours at 4° C. A protein complex was centrifuged at 1,000×g with a cold IP lysis buffer for 1 minute and washed five times. The final pellet was re-suspended in 50 μl of an SDS-sample buffer containing 5% β-mercaptoethanol and heated for 10 minutes at 100° C. A protein sample was isolated in SDS-PAGE (8 to 10%) and transferred to nitrocellulose membranes. Co-precipitated proteins were detected according to western blotting using specific antibodies.
For this purpose, 293T cells were transfected with GST-PPARγ2 and Flag-sLZIP and were treated or not treated with 10 nM of RZD for 24 hours. […] A protein complex was analyzed in SDS-PAGE, and immunoblotted with anti-GST and anti-Flag antibodies. […] The cell lysates were GST pull-down analyzed (FIG. 5C). […] The cell lysates were GST pull-down analyzed (FIG. 5D). […] A protein complex was analyzed in SDS-PAGE, and then immunoblotted with anti-NCoR1 and anti-Flag antibodies (FIG. 5E). […]

B1: sLZIP: human small leucine-zipper protein, isoform of LZIP, 354 amino acids, no transmembrane domain; GenBank FJ263669, SEQ ID NO: 1 (protein, listed as Homo sapiens)
chain: MELELDAGDQDLLAFLLEESGDLGTAPDEAVRAPLDWALPLSEVPSDWEVDDLLCSLLSPPASLNILSSSNPCLVHHDHTYSLPRETVSMDLESESCRKEGTQMTPQHMEELAEQEIARLVLTDEEKSLLEKEGLILPETLPLTKTEEQILKRVRRKIRNKRSAQESRRKKKVYVGGLESRVLKYTAQNMELQNKVQLLEEQNLSLLDQLRKLQAMVIEISNKTSSSSMYSSDTRGSLPAEHGVLSRQLRALPSEDPYQLELPALQSEVPKDSTHQWLDGSDCVLQAPGNTSCLLHYMPQAPSAEPPLEWPFPDLFSEPLCRGPILPLQANLTRKGGWLPTGSPSVILQDRYSG
As for B1, the entries for the “interaction with HDAC3 (GST pull-down)” value in the test with HDAC3 (10 nM RZD for 24 hours) and with HDAC3 (no RZD) were “HDAC3 was remained as being interacted with sLZIP” and “interacted with HDAC3 in a PPARγ2 corepressor complex”, respectively. In the test on NCoR1, the “interaction with NCoR1 (immunoprecipitation)” value is listed as “NCoR1 was slightly dissociated from sLZIP”.

(Values after patent US10058586B2, “Use of human small leucine zipper protein in adipocyte differentiation procedure” (Korea University Research and Business Foundation, priority 2013, dated 2018).)
